Data as given in article PMC4521584.

B1: WT His6-MutL, full length [E. coli] / WT MutS, full length [E. coli] (parent)
chain 1: MPIQVLPPQLANQIAAGEVVERPASVVKELVENSLDAGATRIDIDIERGGAKLIRIRDNGCGIKKDELALALARHATSKIASLDDLEAIISLGFRGEALASISSVSRLTLTSRTAEQQEAWQAYAEGRDMNVTVKPAAHPVGTTLEVLDLFYNTPARRKFLRTEKTEFNHIDEIIRRIALARFDVTINLSHNGKIVRQYRAVPEGGQKERRLGAICGTAFLEQALAIEWQHGDLTLRGWVADPNHTTPALAEIQYCYVNGRMMRDRLINHAIRQACEDKLGADQQPAFVLYLEIDPHQVDVNVHPAKHEVRFHQSRLVHDFIYQGVLSVLQQQLETPLPLDDEPQPAPRSIPENRVAAGRNHFAEPAAREPVAPRYTPAPASGSRPAAPWPNAQPGYQKQQGEVYRQLLQTPAPMQKLKAPEPQEPALAANSQSFGRVLTIVHSDCALLERDGNISLLSLPVAERWLRQAQLTPGEAPVCAQPLLIPLRLKVSAEEKSALEKAQSALAELGIDFQSDAQHVTIRAVPLPLRQQNLQILIPELIGYLAKQSVFEPGNIAQWIARNLMSEHAQWSMAQAITLLADVERLCPQLVKTPPGGLLQSVDLHPAIKALKDE
chain 2: MSAIENFDAHTPMMQQYLRLKAQHPEILLFYRMGDFYELFYDDAKRASQLLDISLTKRGASAGEPIPMAGIPYHAVENYLAKLVNQGESVAICEQIGDPATSKGPVERKVVRIVTPGTISDEALLQERQDNLLAAIWQDSKGFGYATLDISSGRFRLSEPADRETMAAELQRTNPAELLYAEDFAEMSLIEGRRGLRRRPLWEFEIDTARQQLNLQFGTRDLVGFGVENAPRGLCAAGCLLQYAKDTQRTTLPHIRSITMEREQDSIIMDAATRRNLEITQNLAGGAENTLASVLDCTVTPMGSRMLKRWLHMPVRDTRVLLERQQTIGALQDFTAGLQPVLRQVGDLERILARLALRTARPRDLARMRHAFQQLPELRAQLETVDSAPVQALREKMGEFAELRDLLERAIIDTPPVLVRDGGVIASGYNEELDEWRALADGATDYLERLEVRERERTGLDTLKVGFNAVHGYYIQISRGQSHLAPINYMRRQTLKNAERYIIPELKEYEDKVLTSKGKALALEKQLYEELFDLLLPHLEALQQSASALAELDVLVNLAERAYTLNYTCPTFIDKPGIRITEGRHPVVEQVLNEPFIANPLNLSPQRRMLIITGPNMGGKSTYMRQTALIALMAYIGSYVPAQKVEIGPIDRIFTRVGAADDLASGRSTFMVEMTETANILHNATEYSLVLMDEIGRGTSTYDGLSLAWACAENLANKIKALTLFATHYFELTQLPEKMEGVANVHLDALEHGDTIAFMHSVQDGAASKSYGLAVAALAGVPKEVIKRARQKLRELESISPNAAATQVDGTQMSLLSVPEETSPAVEALENLDPDSLTPRQALEWIYRLKSLV

Variants of: B1
Assay: SPR
Conditions: with WT MutS, MutS sliding clamps pre-formed on 100-bp end-blocked DNA in the presence of ATP, value read at the highest MutL concentration (last point, est. about 5,000 …), read off a plot

Row | Variant | response [%]
1 | chain 1 A138E | 11
2 | chain 1 A138E H139A | 3
3 | chain 1 K52C | 13

Further lines, results first:

Row | response [%] | Variant
4 | -1 | chain 1 R55D R57D A138E H139A
5 | -7 | chain 1 R55D R57D

Same assay, conditions: with WT His6-MutL, MutS sliding clamps pre-formed on 100-bp end-blocked DNA in the presence of ATP, value read at the highest MutL concentration (last point, est. about 5,000 …), read off a plot

Row | response [%] | Variant
6 | 8 | chain 2 P595A I597A M759D
